Reference: patent publication US20110034372A1

Tests used:
[1] = molecular target: cell surface GDF-8 binding proteins on L6 myoblasts; assay: I-125 labeled GDF-8 receptor-ligand binding assay on myoblast cells
[2] = molecular target: myostatin mature C-terminal dimer (purified from CHO cell conditioned medium) (UniProt O08689); assay: inhibition of labeled myostatin binding to Act RIIB-transfected COS-7 cells; reference: follistatin Ki of approximately 470 pM
[3] = molecular target: myostatin mature C-terminal dimer (purified from CHO cell conditioned medium) (UniProt O08689); assay: inhibition of labeled myostatin binding to Act RIIB-transfected COS-7 cells

Chain of myostatin mature C-terminal dimer (purified from CHO cell conditioned medium) (O08689 268-376 limits assumed): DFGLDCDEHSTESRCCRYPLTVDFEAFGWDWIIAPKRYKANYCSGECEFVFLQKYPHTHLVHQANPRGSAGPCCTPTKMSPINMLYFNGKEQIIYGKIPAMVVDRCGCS
Chain of Recombinant human GDF-8 (rhGDF-8) homodimer (O14793 267-374): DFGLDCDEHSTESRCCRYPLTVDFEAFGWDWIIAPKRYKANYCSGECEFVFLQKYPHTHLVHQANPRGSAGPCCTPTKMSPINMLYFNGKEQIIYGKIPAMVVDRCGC

“Recombinant human GDF-8 (rhGDF-8) homodimer (from UniProt O14793 267-374) (ligand)” was tested, and the Kd [1] was 0.37 nM.

Work on “myostatin prodomain peptide (purified from CHO cell conditioned medium) (from UniProt O08689 25-267)” yielded a Ki, fold relative to the Ki of follistatin [2] of 50 fold.

In the case of follistatin, the Ki [3] is reported as 0.47 nM.
